In this series the target is T1, response regulator Awo_c25920 (Reg) (Acetobacterium woodii) (UniProt H6LEQ6).
T1 sequence: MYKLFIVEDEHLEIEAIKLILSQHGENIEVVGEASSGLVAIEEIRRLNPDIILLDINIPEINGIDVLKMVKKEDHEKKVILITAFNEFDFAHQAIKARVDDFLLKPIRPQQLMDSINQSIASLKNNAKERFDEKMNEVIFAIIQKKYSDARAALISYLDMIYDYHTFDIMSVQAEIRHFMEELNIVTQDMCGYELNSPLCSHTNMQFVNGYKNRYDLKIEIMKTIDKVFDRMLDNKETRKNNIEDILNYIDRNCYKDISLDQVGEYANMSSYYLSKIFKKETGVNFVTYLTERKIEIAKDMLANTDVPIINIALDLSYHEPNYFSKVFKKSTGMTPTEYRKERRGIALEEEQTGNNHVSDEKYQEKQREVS
As to the kind of experiment: EMSA. Conditions: EMSA in 12 ul buffer B: 50 mM Tris-HCl, 125 mM NaCl, 10 mM glycerol, 5 mM MgCl2, pH 7.8, 6% native PAGE in 1X TAE at 4 C, ethidium bromide stain. Background: Mobility shift assays separate free from complexed probe on a gel.

These results are taken from PMC7593272.

Take “CATAAAACTAAAAAAATAGTCAAAAAAGCAGAACAGGAAAACCTTAGGGTTAACCTGTTCTTTTTATACGTTAGAATTAGAAATGTGATTTTAAAGTACAGGTATTAGACAAAATATTACACTATGTTTTTATGGATAGAGACAAAAAACAGCGTTAGTAAAAGGTTTTCAAGGTGGTTTTAAGAAACAAACAATAATTTTATAAGAATAGCACAAGTAATTACCATAGCCTTTGAATTAAAATATAGTTAGTTCAGTAATAAAATCTTGTAATTAAGGAGGATAGAGCTT (double strand) [291 bp intergenic region upstream of pduA]”: the binding entry was “binds”.
